Assays:
[1] = target: T1, CcDHAD (dihydroxyacid dehydratase) (Caulobacter vibrioides, UniProt Q9A9Z2); test: inhibition of D-gluconate dehydration (experimental analysis in Figure S2); type: biochemical
T1 construct: gene xylD; codon-optimised gene in pET28a, recombinant in E. coli BL21(DE3), purified on His GraviTrap; MnCl2 added before freezing
T1 sequence (Q9A9Z2 1-595): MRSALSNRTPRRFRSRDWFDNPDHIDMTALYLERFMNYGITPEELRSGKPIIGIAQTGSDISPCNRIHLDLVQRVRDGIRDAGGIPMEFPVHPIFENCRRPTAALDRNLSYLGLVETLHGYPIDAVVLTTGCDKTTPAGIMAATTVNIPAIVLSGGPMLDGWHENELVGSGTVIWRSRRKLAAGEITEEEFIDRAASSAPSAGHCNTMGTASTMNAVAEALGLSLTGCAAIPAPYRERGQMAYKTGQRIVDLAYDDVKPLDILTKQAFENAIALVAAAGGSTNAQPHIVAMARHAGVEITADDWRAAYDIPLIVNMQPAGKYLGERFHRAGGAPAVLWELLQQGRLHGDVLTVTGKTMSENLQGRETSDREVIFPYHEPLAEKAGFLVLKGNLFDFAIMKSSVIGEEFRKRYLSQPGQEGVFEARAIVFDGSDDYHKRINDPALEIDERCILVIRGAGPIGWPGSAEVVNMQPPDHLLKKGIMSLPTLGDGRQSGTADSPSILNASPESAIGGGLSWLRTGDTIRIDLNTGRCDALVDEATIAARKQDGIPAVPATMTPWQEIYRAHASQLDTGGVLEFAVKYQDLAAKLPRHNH

purified protein [2] = substrate: O=C[C@H](O)CO; test: purified protein; settings: substrate not named in table (D-glyceraldehyde from the cascade), cofactor NAD, 50 °C, 100 mM HEPES pH 7.35, 100 mM ammonium sulfate
purified protein [3] = substrate: NC(=O)c1ccc[n+]([C@@H]2O[C@H](COP(=O)(O)OP(=O)(O)OC[C@H]3O[C@@H](n4cnc5c(N)ncnc54)[C@H](O)[C@@H]3O)[C@@H](O)[C@H]2O)c1; test: purified protein; type: biochemical, Methanocaldococcus jannaschii; settings: 50 °C, 100 mM HEPES pH 7.35, 100 mM ammonium sulfate, varied: cofactor
purified protein [4] = substrate: O=C(O)[C@H](O)[C@@H](O)[C@H](O)[C@H](O)CO; test: purified protein; type: biochemical, Caulobacter vibrioides; settings: 0.2-20 mM D-gluconate, 1 mM NAD, 50 °C, 100 mM HEPES pH 7.35, 100 mM ammonium sulfate, enzyme stored with MnCl2
purified protein [5] = substrate: O=C(O)C(=O)C[C@H](O)[C@H](O)CO; test: purified protein; type: biochemical, Picrophilus oshimae; settings: 0.03-3 mM KDG, 1 mM NAD, 50 °C, 100 mM HEPES pH 7.35, 100 mM ammonium sulfate
purified protein [6] = substrate: NC(=O)C1=CN([C@@H]2O[C@H](COP(=O)(O)OP(=O)(O)OC[C@H]3O[C@@H](n4cnc5c(N)ncnc54)[C@H](O)[C@@H]3O)[C@@H](O)[C@H]2O)C=CC1; test: purified protein; type: biochemical, Archaeoglobus fulgidus; settings: 0.005-0.3 mM NADH, 1 mM pyruvate, 100 mM (NH4)2SO4, 50 °C, 100 mM HEPES pH 7.35, varied: cofactor
purified protein [7] = substrate: CC(=O)C(=O)O; test: purified protein; type: biochemical, Archaeoglobus fulgidus; settings: 0.1-1 mM pyruvate, 0.2 mM NADH, 100 mM (NH4)2SO4, 50 °C, 100 mM HEPES pH 7.35

O=C(O)[C@H](O)CO [D-glycerate] gave a Ki [1] of roughly 500 µM.

B1: MjALDH (aldehyde dehydrogenase) (Methanocaldococcus jannaschii DSM 2661) (protein)
chain: MFIDGKWINREDMDVINPYSLEVIKKIPALSREEAKEAIDTAEKYKEVMKNLPITKRYNILMNIAKQIKEKKEELAKILAIDAGKPIKQARVEVERSIGTFKLAAFYVKEHRDEVIPSDDRLIFTRREPVGIVGAITPFNFPLNLSAHKIAPAIATGNVIVHHPSSKAPLVCIELAKIIENALKKYNVPLGVYNLLTGAGEVVGDEIVVNEKVNMISFTGSSKVGELITKKAGFKKIALELGGVNPNIVLKDADLNKAVNALIKGSFIYAGQVCISVGMILVDESIADKFIEMFVNKAKVLNVGNPLDEKTDVGPLISVEHAEWVEKVVEKAIDEGGKLLLGGKRDKALFYPTILEVDRDNILCKTETFAPVIPIIRTNEEEMIDIANSTEYGLHSAIFTNDINKSLKFAENLEFGGVVINDSSLFRQDNMPFGGVKKSGLGREGVKYAMEEMSNIKTIIISK
notes: codon-optimised gene in pET28a (NcoI/XhoI), recombinant in E. coli BL21(DE3), purified by heat treatment (70 °C) and desalting
Work on B1 yielded a Km (purified protein [2]) of 0.3 mM and a Km (purified protein [3]) of 0.3 mM.

B2: CcDHAD (dihydroxyacid dehydratase) (Caulobacter vibrioides CB15) (protein)
chain: MRSALSNRTPRRFRSRDWFDNPDHIDMTALYLERFMNYGITPEELRSGKPIIGIAQTGSDISPCNRIHLDLVQRVRDGIRDAGGIPMEFPVHPIFENCRRPTAALDRNLSYLGLVETLHGYPIDAVVLTTGCDKTTPAGIMAATTVNIPAIVLSGGPMLDGWHENELVGSGTVIWRSRRKLAAGEITEEEFIDRAASSAPSAGHCNTMGTASTMNAVAEALGLSLTGCAAIPAPYRERGQMAYKTGQRIVDLAYDDVKPLDILTKQAFENAIALVAAAGGSTNAQPHIVAMARHAGVEITADDWRAAYDIPLIVNMQPAGKYLGERFHRAGGAPAVLWELLQQGRLHGDVLTVTGKTMSENLQGRETSDREVIFPYHEPLAEKAGFLVLKGNLFDFAIMKSSVIGEEFRKRYLSQPGQEGVFEARAIVFDGSDDYHKRINDPALEIDERCILVIRGAGPIGWPGSAEVVNMQPPDHLLKKGIMSLPTLGDGRQSGTADSPSILNASPESAIGGGLSWLRTGDTIRIDLNTGRCDALVDEATIAARKQDGIPAVPATMTPWQEIYRAHASQLDTGGVLEFAVKYQDLAAKLPRHNH
notes: codon-optimised gene in pET28a, recombinant in E. coli BL21(DE3), purified on His GraviTrap; MnCl2 added before freezing
Work on B2 yielded a Km (purified protein [4]) of 3.2 mM.

B3: PtKDGA (2-keto-3-deoxygluconate aldolase) (Picrophilus oshimae DSM 9789) (protein)
chain: MITPLDAHGNIDYNATNILIKYLEGINVDYLFPMGSTGVFPYFTLKERKDFLKFVRENSKKPIMAGVGSSSINEVNELMKFSMDIGIEAAVLMPPYYIKLNQEAIYHYYKEILSSNDMDLLIYNIPQFTNKIDPETVKNLKSEFSSVKGVKDSSADIRGFMEMLSLSDDDFAVFQGQDDLLFTSLELGASGGVCGTTNFSDGIVRLYHEYKNNREMALKIEKNDVIPLMKKLGKYQFPNAYYEYFYKKNNINGGYRPPMYRVGIEI
notes: codon-optimised gene in pET28a, recombinant in E. coli BL21(DE3), heat treated (65 °C) and purified on His GraviTrap
B3 showed a Km (purified protein [5]) of 1.1 mM.

B4: AfAlaDH (L-alanine dehydrogenase) (Archaeoglobus fulgidus DSM 4304) (protein)
chain: METLILTQEEVESLISMDEAMNAVEEAFRLYALGKAQMPPKVYLEFEKGDLRAMPAHLMGYAGLKWVNSHPGNPDKGLPTVMALMILNSPETGFPLAVMDATYTTSLRTGAAGGIAAKYLARKNSSVFGFIGCGTQAYFQLEALRRVFDIGEVKAYDVREKAAKKFVSYCEDRGISASVQPAEEASRCDVLVTTTPSRKPVVKAEWVEEGTHINAIGADGPGKQELDVEILKKAKIVVDDLEQAKHGGEINVAVSKGVIGVEDVHATIGEVIAGLKDGRESDEEITIFDSTGLAIQDVAVAKVVYENALSKNVGSKIKFFRI
notes: codon-optimised gene in pET24a, recombinant in E. coli BL21(DE3), purified by heat treatment (70 °C) and desalting
Work on B4 yielded a Km (purified protein [6]) of 0.06 mM and a Km (purified protein [7]) of 0.2 mM.
